Measured values from US20260078341A1 (published 2026).
Like-named read-outs stand apart in the source and are kept apart here.

Key:
[1] = biological target: T1, EGFR on cells (tumor lines, primary cell lines, K562 cells electroporated with EGFR mRNA, A431) (UniProt P00533 25-1210); experiment: not stated; affinity of the scFv
[2] = biological target: T1, EGFR on cells (tumor lines, primary …); experiment: not stated; affinity of the scFv; remark: listed apart in the source

B1: P2-4BBZ CAR (other)
chain: DYKDDDDKEVQLVQSGAEVKKPGSSVKVSCKASGGTFSSYAISWVRQAPGQGLEWMGGIIPIFGTANYAQKFQGRVTITADESTSTAYMELSSLRSEDTAVYYCAREEGPYCSSTSCYAAFDIWGQGTLVTVSSGGGGSGGGGSGGGGSQSVLTQDPAASVALGQTVKITCQGDSLRSYFASWYQQKPGQAPTLVMYARNDRPAGVPDRFSGSKSGTSASLAISGLQSEDEADYYCAAWDDSLNGYLFGAGTKLTVLTTTPAPRPPTPAPTIASQPLSLRPEACRPAAGGAVHTRGLDFACDIYIWAPLAGTCGVLLLSLVITLYCKRGRKKLLYIFKQPFMRPVQTTQEEDGCSCRFPEEEEGGCELRVKFSRSADAPAYKQGQNQLYNELNLGRREEYDVLDKRRGRDPEMGGKPRRKNPQEGLYNELQKDKMAEAYSEIGMKGERRRGKGHDGLYQGLSTATKDTYDALHMQALPPR
Kd [1]: 15.4 nM
Kd [2]: 15.4 nM

B2: P3-5BBZ CAR (other)
chain: DYKDDDDKEVQLVQSGAEVKKPGSSVKVSCKASGGTFSSYAISWVRQAPGQGLEWVGGIIPIFGTANYAQKFQGRVKITADESASTAYMELSSLRSEDTAVYYCAREEGPYCSSTSCYGAFDIWGQGTLVTVSSGGGGSGGGGSGGGGSQSVLTQDPAVSVALGQTVKITCQGDSLRSYLASWYQQKPGQAPTLVTYARNDRPAGVPDRFSGSKSGTSASLAISGLQSEDEADYYCAAWDDSLNGYLFGAGTKLTVLTTTPAPRPPTPAPTIASQPLSLRPEACRPAAGGAVHTRGLDFACDIYIWAPLAGTCGVLLLSLVITLYCKRGRKKLLYIFKQPFMRPVQTTQEEDGCSCRFPEEEEGGCELRVKFSRSADAPAYKQGQNQLYNELNLGRREEYDVLDKRRGRDPEMGGKPRRKNPQEGLYNELQKDKMAEAYSEIGMKGERRRGKGHDGLYQGLSTATKDTYDALHMQALPPR
Kd [1]: 88.2 nM
Kd [2]: 88.2 nM

B3: C10-BBZ CAR (other)
chain: DYKDDDDKEVQLVQSGAEVKKPGSSVKVSCKASGGTFSSYAISWVRQAPGQGLEWMGGIIPIFGTANYAQKFQGRVTITADESTSTAYMELSSLRSEDTAVYYCAREEGPYCSSTSCYGAFDIWGQGTLVTVSSGGGGSGGGGSGGGGSQSVLTQDPAVSVALGQTVKITCQGDSLRSYFASWYQQKPGQAPTLVMYARNDRPAGVPDRFSGSKSGTSASLAISGLQSEDEADYYCAAWDDSLNGYLFGAGTKLTVLTTTPAPRPPTPAPTIASQPLSLRPEACRPAAGGAVHTRGLDFACDIYIWAPLAGTCGVLLLSLVITLYCKRGRKKLLYIFKQPFMRPVQTTQEEDGCSCRFPEEEEGGCELRVKFSRSADAPAYKQGQNQLYNELNLGRREEYDVLDKRRGRDPEMGGKPRRKNPQEGLYNELQKDKMAEAYSEIGMKGERRRGKGHDGLYQGLSTATKDTYDALHMQALPPR
Kd [1]: 264 nM
Kd [2]: 264 nM
